In patent publication US20090036380A1, “Composition And Method For Brain Tumor Therapy” (Yeda Research and Development Co., Ltd., priority 2006, published 2009):

Legend:
[1] = tested on: PC12 cells; assay: Effect of pathway proteins and inhibitors on Karet-induced cell death in PC12 cells; format: cell-based, rat; conditions: co-electroporated with Karet into PC12, 12 hours
[2] = tested on: PC12 cells; assay: Viability / death of PC12 cells after transfection with Karet constructs (Live/dead kit, FACS, cell counting, Hoechst); format: cell-based, rat; conditions: PC12-necdin stable cells electroporated with Karet
Method: FIG. 5a is a bar-graph of FACS data depicting 50 percent death of PC12 cells overexpressing Karet. Shown is a FACS analysis of PC12 viability 15 hours after transfection with Ha-Karet or control vector using Live/dead kit (Molecular probes), T-test=0.003.
FIG. 5b is a series of fluorescence photomicrographs depicting death of PC12 cells caused by Karet overexpression. Shown is a live/dead kit analysis of PC12 cells overexpressing Ha-Karet (left panels) versus control vector-transfected cells (right panels). Live cell are stained in green, dead cells are stained in red. Upper panels each show red fluorescence only (left picture) and green fluorescence only (right picture) pairs, and lower panels each show combined red and green fluorescence (left picture) and light microscopy images (right picture) pairs. […]
FIG. 5e is a histogram depicting that Karet expression induces cell death of TrkA expressing cells, which is increased by NGF treatment and is decreased by necdin. […] Cells were counted and result presented as percent of control.
PC12 cells were transfected with Ha Karet, PTB, non PTB and their combinations. Cells were analyzed by FACS 18 hours after transfection using the dead/live kit. […]
The lower panel is a histogram depicting that Karet-mediated cell death correlates well with expression levels of the Karet protein. […] Cells were counted and the results were determined as percent of control. […]

[3] = biological target: 27 amino acid residue juxtamembrane region of TrkA (Homo sapiens, UniProt P04629); assay: In-vitro affinity co-precipitation with biotinylated TrkA juxtamembrane peptide; format: binding; conditions: streptavidin beads, recombinant protein, versus two control peptides
Chain of 27 amino acid residue juxtamembrane region of TrkA (P04629 464-490 limits assumed): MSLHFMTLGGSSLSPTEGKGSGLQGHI
Excerpt: FIG. 8a is a co-immunoprecipitation analysis depicting interaction of Karet PTB domain with a juxtamembrane region of TrkA. Biotinylated synthetic peptide corresponding to the TrkA sequence in the juxtamembrane and control peptide were immobilized on streptavidin beads and then used to precipitate recombinant Karet protein. Precipitates were washed, eluted and bound Karet was visualized by Western blot with anti-His antibody.
FIG. 8b is an in-vitro affinity co-precipitation Western blot depicting that the isolated N-terminal PTB domain of Karet specifically interacts with a […] residue juxtamembrane region of TrkA having the sequence Biotinylated synthetic peptides corresponding to a 27 amino acid residue juxtamembrane region of TrkA having the sequence […] (SEQ ID NO: 10), and two control peptides were immobilized on streptavidin beads, and then used to precipitate recombinant PTB domain-containing Karet(1-228) truncation mutant. Precipitates were washed, eluted and bound Karet(1-228) was visualized by Western blot with Karet antibody.

[4] = tested on: TrkA; assay: Co-immunoprecipitation of HA-Karet constructs with TrkA; format: binding; conditions: co-transfected Hek or NNR5 cells, anti-HA IP
Method: FIG. 3c is a co-immunoprecipitation assay depicting co-immunoprecipitation of HA-Karet with TrkA in COS cells. Karet tagged with the HA epitope was immunoprecipitated with anti-HA antibody and the blot was incubated with anti-TrkA (RTA). In control experiments the HA-Karet was substituted with vector.
FIG. 3d is a co-immunoprecipitation assay depicting interaction of Karet and TrkA in NNR5 cells transfected with TrkA.
FIG. 3e is a co-immunoprecipitation assay depicting co-immunoprecipitation of HA-Karet with TricA in co-transfected NNR5 cells immunoprecipitated with anti-HA (Roche) and Western blot with the anti-TrkA antibody C14 (Santa Cruz).
FIGS. 4a-c are co-immunoprecipitation assay results depicting the influence of NGF treatment on TrkA-Karet interaction. FIG. 4a depicts that TrkA-Karet interaction occurred prior to NGF treatment and was enhanced after ligand stimulation for 10 minutes (10 m) or 2 hours (2 h). HA-Karet was electroporated into cell line PC12, and the cells were treated with 50 ng/ml NGF for the indicated time periods in order to activate p75 and TrkA. Karet tagged with the HA epitope was immunoprecipitated with anti-HA antibody, the precipitated proteins were separated electrophoretically, and gel blots were incubated with anti-TrkA antibody (RTA). […]

B1: JIP1: a Jnk scaffold and inhibitor (protein, UniProt Q9UQF2 1-711, looked up)
C-Jun-amino-terminal …: MAERESGGLGGGAASPPAASPFLGLHIASPPNFRLTHDISLEEFEDEDLSEITDECGISLQCKDTLSLRPPRAGLLSAGGGGAGSRLQAEMLQMDLIDATGDTPGAEDDEEDDDEERAARRPGAGPPKAESGQEPASRGQGQSQGQSQGPGSGDTYRPKRPTTLNLFPQVPRSQDTLNNNSLGKKHSWQDRVSRSSSPLKTGEQTPPHEHICLSDELPPQSGPAPTTDRGTSTDSPCRRSTATQMAPPGGPPAAPPGGRGHSHRDRIHYQADVRLEATEEIYLTPVQRPPDAAEPTSAFLPPTESRMSVSSDPDPAAYPSTAGRPHPSISEEEEGFDCLSSPERAEPPGGGWRGSLGEPPPPPRASLSSDTSALSYDSVKYTLVVDEHAQLELVSLRPCFGDYSDESDSATVYDNCASVSSPYESAIGEEYEEAPRPQPPACLSEDSTPDEPDVHFSKKFLNVFMSGRSRSSSAESFGLFSCIINGEEQEQTHRAIFRFVPRHEDELELEVDDPLLVELQAEDYWYEAYNMRTGARGVFPAYYAIEVTKEPEHMAALAKNSDWVDQFRVKFLGSVQVPYHKGNDVLCAAMQKIATTRRLTVHFNPPSSCVLEISVRGVKIGVKADDSQEAKGNKCSHFFQLKNISFCGYHPKNNKYFGFITKHPADHRFACHVFVSEDSTKALAESVGRAFQQFYKQFVEYTCPTEDIYLE
[1]
  effect on cell death induction by Karet: did not affect cell death induction

B2: p35: a baculovirus caspase-8 and caspase-10 inhibitor (protein, UniProt P08160 1-299, looked up)
Early 35 kDa protein: MCVIFPVEIDVSQTIIRDCQVDKQTRELVYINKIMNTQLTKPVLMMFNISGPIRSVTRKNNNLRDRIKSKVDEQFDQLERDYSDQMDGFHDSIKYFKDEHYSVSCQNGSVLKSKFAKILKSHDYTDKKSIEAYEKYCLPKLVDERNDYYVAVCVLKPGFENGSNQVLSFEYNPIGNKVIVPFAHEINDTGLYEYDVVAYVDSVQFDGEQFEEFVQSLILPSSFKNSEKVLYYNEASKNKSMIYKALEFTTESSWGKSEKYNWKIFCNGFIYDKKSKVLYVKLHNVTSALNKNVILNTIK
[1]
  effect on cell death induction by Karet: did not affect cell death induction

B3: necdin: MAGE protein, interactor of the intracellular domain of p75 (protein)
chain: MSEQSKDLSDPNFAAEVPDCEMQDSDAVPVGIPPPASLAANLAGPPCAPEGPMAAQQASPPPEERIEDVDPKILQQAAEEGRAHQPQSPARPIPAPPAPAQLVQKAHELMWYVLVKDQKRMVLWFPDMVKEVMGSYKKWCRSILRRTSVILARVFGLHLRLTNLHTMEFALVKALSPEELDRVALNNRMPMTGLLLMILSLIYVKGRGAREGAVWNVLRILGLRPWKKHSTFGDVRKIITEEFVQQNYLKYQRVPHIEPPEYEFFWGSRANREITKMQIMEFLARVFKKDPQAWPSRYREALEQARALREANLAAQAPRSSVSED
[2]
  effect on the apoptotic effects of Karet: attenuated somewhat the apoptotic effects of Karet

B4: Karet(1-228): N-terminal, PTB-domain-containing truncation mutant of mouse Karet, amino acid residues 1-228 (SEQ ID NO: 7) (protein, listed as Mus musculus)
chain: MEEEGKKGKKPGIVSPFKRVFLKGEKSRDKKAHEKVTERRPLHTVVLALPERVEPDRLLSDYIEKEVKYLGQLTSIPGYLNPSSRTEILHFIDKAKRSHQLPGHLTQEHDAVLSLSAYNVKLAWRDGEDIILRVPIHDIAAVSYVRDDAAHLVVLKTAQDPGISPSQSLCAESSRGLSAGSLSESAVGPVEACCLVIMATESKVAAEELCSLLSQVFQIVYTESTIDF
modifications: HA tag; N-terminal PTB-domain-containing, truncation mutant of the mouse Karet
[3]
  precipitation by immobilized TrkA peptide (SEQ ID NO: 10): precipitated by the TrkA peptide
[4]
  co-immunoprecipitation / interaction with TrkA: interacts with TrkA
[4]; listed as PTB domain alone
  co-immunoprecipitation / interaction with TrkA: co-immunoprecipitated
